Experimental findings from publication PMC10763354 (2024) are described below.

The assay concerns the target Desulfovibrio vulgaris flagellin (Desulfovibrio vulgaris). The assay is described as follows: MST.

B1: leucine-rich repeat containing 19 (LRRC19) protein (receptor)
chain: SKREVQCNFTEKNYTLIPADIKKDVTILDLSYNQITLNGTDTRVLQTYFLLTELYLIENKVTILHNNGFGNLSSLEILNICRNSIYVIQQGAFLGLNKLKQLYLCQNKIEQLNADVFVPLRSLKLLNLQGNLISYLDVPPLFHLELITLYGNLWNCSCSLFNLQNWLNTSNVTLENENITMCSYPNSLQSYNIKTVPHKAECHSKFPSSVTEDLYIHFQPISNSIFNSSSNNLTRNSEHEPLGKSW
modifications: NT647 fluorescence dye (in the MST experiments only)
Turning to B1, the Kd is 1.05 µM.

The term Kd denotes the equilibrium constant for the complex coming apart.
